Patent US20250076311A1 (Chugai, published 2025)

Legend:
Mouse latent myostatin [1] = target: T1, Mouse latent myostatin (mouse, UniProt O08689 26-267; O08689 268-376, limits assumed); experiment: SPR (Biacore T200), 37C, pH 7.4, antibody captured on ProA/G
T1 sequence 1: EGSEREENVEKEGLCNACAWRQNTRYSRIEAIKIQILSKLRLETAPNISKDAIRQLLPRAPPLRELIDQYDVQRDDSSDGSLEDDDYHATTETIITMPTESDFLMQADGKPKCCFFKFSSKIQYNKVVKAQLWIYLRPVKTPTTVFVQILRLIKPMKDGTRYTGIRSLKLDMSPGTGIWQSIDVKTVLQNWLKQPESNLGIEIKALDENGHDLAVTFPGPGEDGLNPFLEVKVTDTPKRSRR
T1 sequence 2: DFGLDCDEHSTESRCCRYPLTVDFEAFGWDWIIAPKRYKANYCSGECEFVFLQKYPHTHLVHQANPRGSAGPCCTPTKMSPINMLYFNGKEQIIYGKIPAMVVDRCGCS
Description: (§1) ProA/G (Pierce) was immobilized onto all flow cells of a CM4 chip using an amine coupling kit (GE Healthcare). All antibodies and analytes were prepared in ACES pH7.4 or pH5.8 buffer containing 20 mM ACES, 150 mM NaCl, 1.2 mM CaCl₂, 0.05% TWEEN® 20, 0.005% NaN3. […] The sensor surface was regenerated each cycle with 10 mM Glycine HCl pH1.5. Binding affinity was determined by processing and fitting the data to a 1:1 binding model using BIACORE® T200 Evaluation software, version 2.0 (GE Healthcare).

Mouse latent myostatin [2] = target: T1, Mouse latent myostatin; experiment: SPR (Biacore T200), 37C, pH 5.8, antibody captured on ProA/G
Description: as §1

[3] = target: T2, cynomolgus monkey FcγRIIa3 extracellular domain, His-tagged (cynomolgus monkey); experiment: SPR (BIACORE), antibody captured on chip, soluble FcgR as analyte, 25 C
T2 construct: also called cyno FcgRIIa3; cynoFcγRIIa3; not shown: His-tag added to the C-terminus
T2 chain: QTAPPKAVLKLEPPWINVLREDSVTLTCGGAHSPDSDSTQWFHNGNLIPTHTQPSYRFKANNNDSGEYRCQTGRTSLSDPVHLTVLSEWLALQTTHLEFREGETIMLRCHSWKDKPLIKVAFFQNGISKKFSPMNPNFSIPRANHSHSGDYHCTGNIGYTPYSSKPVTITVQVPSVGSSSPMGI

[4] = target: T3, cynomolgus monkey FcγRIIa1 extracellular domain, His-tagged (cynomolgus monkey); experiment: as above
T3 construct: also called cyno FcgRIIa1; cynoFcγRIIa1; not shown: His-tag added to the C-terminus
T3 chain: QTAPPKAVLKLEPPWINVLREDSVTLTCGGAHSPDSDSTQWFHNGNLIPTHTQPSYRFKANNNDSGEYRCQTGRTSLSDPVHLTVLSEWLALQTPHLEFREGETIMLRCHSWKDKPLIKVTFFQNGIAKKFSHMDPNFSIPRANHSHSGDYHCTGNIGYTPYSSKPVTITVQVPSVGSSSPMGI

[5] = target: T4, human FcγRIIb extracellular domain, His-tagged (human, UniProt P31994 43-217); experiment: SPR (BIACORE); KD of SG1 divided by KD of the variant
T4 construct: also called human FcgRIIb; not shown: His-tag added to the C-terminus
T4 sequence: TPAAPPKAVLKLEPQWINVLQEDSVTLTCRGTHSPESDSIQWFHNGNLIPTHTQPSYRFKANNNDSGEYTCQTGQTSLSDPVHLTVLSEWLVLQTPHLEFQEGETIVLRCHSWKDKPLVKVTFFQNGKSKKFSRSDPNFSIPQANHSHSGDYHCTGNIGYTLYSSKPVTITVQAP
Description: (§2) The kinetic analysis of interactions between these antibodies and FcγR was carried out using BIACORE® T200 or BIACORE® 4000 (GE Healthcare). HBS-EP+ (GE Healthcare) was used as the running buffer, and the measurement temperature was set to 25° C. […] After the measurement, the antibody captured on the chip was washed off by allowing reaction with 10 mM glycine-HCl, pH1.5 and 25 mM NaOH so that the chip was regenerated and used repeatedly. The sensorgrams obtained as measurement results were analyzed by the 1:1 Langmuir binding model using the BIACORE® Evaluation Software to calculate the binding rate constant ka (L/mol/s) and dissociation rate constant kd (1/s), and the dissociation constant KD (mol/L) was calculated from these values. […] Regarding such interactions, KD values were calculated using the following 1:1 binding model described in BIACORE® T100 Software Handbook BR1006-48 Edition AE.

[6] = target: T5, cynomolgus monkey FcγRIIIaS extracellular domain, His-tagged (cynomolgus monkey, UniProt A3RFZ7 21-206 (rhesus entry)); experiment: as above
T5 construct: also called cyno FcgRIIIaS; cynoFcγRIIIaS; not shown: His-tag added to the C-terminus
Description: as §2

[7] = target: T6, cynomolgus monkey FcγRIIb extracellular domain with C-terminal His-tag (cynomolgus monkey); experiment: SPR (Biacore), antibody captured, FcgR analyte
T6 construct: also called cyno FcgRIIb; cynoFcγRIIb
T6 chain: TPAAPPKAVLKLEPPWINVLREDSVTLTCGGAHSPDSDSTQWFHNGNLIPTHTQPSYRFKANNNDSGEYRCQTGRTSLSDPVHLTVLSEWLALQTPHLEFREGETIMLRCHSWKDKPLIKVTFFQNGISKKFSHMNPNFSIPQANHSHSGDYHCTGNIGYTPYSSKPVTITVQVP

[8] = target: T7, human FcγRIIIaV extracellular domain, His-tagged (human, UniProt P08637 17-208); experiment: SPR (BIACORE); KD of SG1 divided by KD of the variant
T7 construct: also called human FcgRIIIaV; not shown: His-tag added to the C-terminus
Description: as §2

T5 sequence (A3RFZ7 21-206): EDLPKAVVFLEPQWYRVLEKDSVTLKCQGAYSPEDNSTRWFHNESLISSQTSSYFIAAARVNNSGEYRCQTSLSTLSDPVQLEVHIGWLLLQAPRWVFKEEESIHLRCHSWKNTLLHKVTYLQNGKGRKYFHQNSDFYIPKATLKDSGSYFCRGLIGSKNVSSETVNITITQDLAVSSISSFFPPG
T7 sequence (P08637 17-208 F176V): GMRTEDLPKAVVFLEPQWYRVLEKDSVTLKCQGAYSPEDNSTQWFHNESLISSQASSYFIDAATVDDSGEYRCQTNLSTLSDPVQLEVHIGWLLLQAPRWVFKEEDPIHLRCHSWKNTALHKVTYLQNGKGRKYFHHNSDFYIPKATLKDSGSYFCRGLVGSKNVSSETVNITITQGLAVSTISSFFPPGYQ

B1: MS1032LO10-SG1 (antibody, human IgG1, kappa, V domains shown)
VH: QVTLKESGPVLVKPTETLTLTCTVSGIDLSHTDISWVRQAPGKGLEWVGIISYAGKTYYASWAKKRLTISKDTSKNQVVLTMTNMDPVDTATYYCARGVPAYSHGGDLWGQGTLVTVSS
VL: DIVMTQSPATLSLSPGERATLSCTSSQSVYHANWLSWFQQKPGQPPKLLIYWASTLAYGVPSRFSGSGSGTDFTLTISSLQPEDAATYYCAGGYGGGRYAFGQGTKVEIKR
Mouse latent myostatin [1]
  Kd: 0.314 nM

B2: MS1032LO21-SG1 (antibody, human IgG1, kappa, V domains shown)
VH: QVTLKESGPVLVKPTETLTLTCKVSGIDLSHDDISWVRQAPGKGLEWVSIISYAGSTYYASWAKGRLTISKDTSKNQVVLTMTNMDPVDTATYYCARGVPAYSHGGDLWGQGTLVTVSS
VL: DIVMTQSPATLSLSPGERATLSCTTSQSVYHENWLSWFQQKPGQPPKLLIYWASTLAYGVPSRFSGSGSGTDFTLTISSLQPEDAATYYCAGGYGGGRYAFGQGTKVEIKR
Mouse latent myostatin [2]
  Kd: 29.4 nM

B3: M103205H795-MY262/M103202L889-SK1 (antibody, human IgG1, kappa, name in EU numbering)
heavy: QVTLKESGPVLVKPTETLTLTCTVSGIDLSHDDISWVRQAPGKGLEWVGIISYAGSTYYASWAKGRLTISKDTSKNQVVLTMTNMDPVDTATYYCARGVPAYSHGGDLWGQGTLVTVSSASTKGPSVFPLAPSSKSTSGGTAALGCLVKDYFPEPVTVSWNSGALTSGVHTFPAVLQSSGLYSLSSVVTVPSSSLGTQTYICNVNHKPSNTKVDKKVEPKSCDKTHTCPPCPAPELLVGPSVFLFPPKPKDTLMISRTPEVTCVVVDVSDEDPEVKFNWYVDGVEVHNAKTKPREEQYNSTYRVVSVLTVLHQDWLNGKEYKCKVSNKALPKPIEKTISKAKGQPREPQVYTLPPSREEMTKNQVSLTCLVKGFYPSDIAVEWESNGQPENNYKTTPPVLDSDGSFFLYSKLTVDKSRWQQGNVFSCSVMHEALHNHYTQKSLSLSP
light: DIVMTQSPATLSLSPGERATLSCTSSQSVYHANWLSWFQQKPGQPPKLLIYWASTLAYGVPSRFSGSGSGTDFTLTISSLQPEDAATYYCAGGYGGGRYAFGQGTKVEIKRTVAAPSVFIFPPSDEQLKSGTASVVCLLNNFYPREAKVQWKVDNALQSGNSQESVTEQDSKDSTYSLSSTLTLSKADYEKHKVYACEVTHQGLSSPVTKSFNRGEC
notes: Asn at EU 236 of MY201 replaced with Val
[3]
  Kd: 80000 nM
[4]
  Kd: 1500 nM
[5]
  KD fold (SG1 = 1): 0.3 fold
[6]
  KD fold (SG1 = 1): 0.35 fold

B4: M103205H795-MY476/M103202L889-SK1 (antibody)
chain 1: QVTLKESGPVLVKPTETLTLTCTVSGIDLSHDDISWVRQAPGKGLEWVGIISYAGSTYYASWAKGRLTISKDTSKNQVVLTMTNMDPVDTATYYCARGVPAYSHGGDLWGQGTLVTVSSASTKGPSVFPLAPSSKSTSGGTAALGCLVKDYFPEPVTVSWNSGALTSGVHTFPAVLQSSGLYSLSSVVTVPSSSLGTQTYICNVNHKPSNTKVDKKVEPKSCDKTHTCPPCPYPELLTGPSVFLFPPKPKDTLMISRTPEVTCVVVDVSDEDPEVKFNWYVDGVEVHNAKTKPREEQYNSTYRVVSVLTVLHQDWLNGKEYKCKVSNKALPKPIEKTISKAKGQPREPQVYTLPPSREEMTKNQVSLTCLVKGFYPSDIAVEWESNGQPENNYKTTPPVLDSDGSFFLYSKLTVDKSRWQQGNVFSCSVMHEALHNHYTQKSLSLSP
chain 2: DIVMTQSPATLSLSPGERATLSCTSSQSVYHANWLSWFQQKPGQPPKLLIYWASTLAYGVPSRFSGSGSGTDFTLTISSLQPEDAATYYCAGGYGGGRYAFGQGTKVEIKRTVAAPSVFIFPPSDEQLKSGTASVVCLLNNFYPREAKVQWKVDNALQSGNSQESVTEQDSKDSTYSLSSTLTLSKADYEKHKVYACEVTHQGLSSPVTKSFNRGEC
[7]
  Kd: 390 nM

B5: M103205H795-MY263/M103202L889-SK1 (antibody, human IgG1, kappa, name in EU numbering)
heavy: QVTLKESGPVLVKPTETLTLTCTVSGIDLSHDDISWVRQAPGKGLEWVGIISYAGSTYYASWAKGRLTISKDTSKNQVVLTMTNMDPVDTATYYCARGVPAYSHGGDLWGQGTLVTVSSASTKGPSVFPLAPSSKSTSGGTAALGCLVKDYFPEPVTVSWNSGALTSGVHTFPAVLQSSGLYSLSSVVTVPSSSLGTQTYICNVNHKPSNTKVDKKVEPKSCDKTHTCPPCPAPELLQGPSVFLFPPKPKDTLMISRTPEVTCVVVDVSDEDPEVKFNWYVDGVEVHNAKTKPREEQYNSTYRVVSVLTVLHQDWLNGKEYKCKVSNKALPKPIEKTISKAKGQPREPQVYTLPPSREEMTKNQVSLTCLVKGFYPSDIAVEWESNGQPENNYKTTPPVLDSDGSFFLYSKLTVDKSRWQQGNVFSCSVMHEALHNHYTQKSLSLSP
light: DIVMTQSPATLSLSPGERATLSCTSSQSVYHANWLSWFQQKPGQPPKLLIYWASTLAYGVPSRFSGSGSGTDFTLTISSLQPEDAATYYCAGGYGGGRYAFGQGTKVEIKRTVAAPSVFIFPPSDEQLKSGTASVVCLLNNFYPREAKVQWKVDNALQSGNSQESVTEQDSKDSTYSLSSTLTLSKADYEKHKVYACEVTHQGLSSPVTKSFNRGEC
notes: Asn at EU 236 of MY201 replaced with Gln
[3]
  Kd: 73000 nM
[8]
  KD fold (SG1 = 1): 0.39 fold
